Reference: patent publication US20260209320A1 (ALCHEMAB THERAPEUTICS, published 2026)
Where no end group is shown, it is not given here.

B1: ATL_0006195 (antibody, V domains shown)
VH: EVQLVESGGGLVKPGGSLRLSCAASGFTFNKAWMSWVRQAPGKGLEWVGRIKSGIDAGTTDYAAPVKGRFTISRDDSKNTLYLQMNSLKTEDTAVYYCTPPPYYYYYGLDVWGQGTTVTVSS
VL: QSALTQPRSVSGSPGQSVTISCTGTSSDVGSYNLVSWYQQHPGKAPKLMIYEVNKRPSGVPDRFSGSKSGATASLTISGLQAEDEADYYCGSYAGTANVFGTGTKVTVL
notes: expressed in IgG1 format; also called ATL_6195
B2: ATL_0005334 (antibody, V domains shown)
VH: EVQLVESGGGLVKPGGSLRLSCAASGFTFNKAWMNWVRQAPGKGLEWVGRIKSGIDGGTTDYAAPVQGRFTISRDDSKNTVYLQMNSLNTEDTAVYYCIPPPYYYYYGLDVWGQGTTVTVSS
VL: QSALTQPASVSGSPGQSITISCTGTSSDVGGYKLVSWYQQHPGRAPKLMIYEVSKRPSGVSSRFSGSKSGSTASLTISGLQAEDEADYYCCSYAGSSVVFGGGTKLTVL
notes: human IgG1; also called ATL_5334
B3: ATL_0006194 (antibody, V domains shown)
VH: EVQLVESGGGLVKPGGSLRLSCAASGFTFNKAWMSWVRQAPGKGLEWVGRIKSGIDAGTTDYAAPVKGRFTISRDDSKNTLYLQMNSLKTEDTAVYYCVPPPYYYYYGLDVWGQGTTVTVSS
VL: QSALTQPRSVSGSPGQSVTISCTGTSSDVGSYNLVSWYQQHPGKAPKLMIYEVNKRPSGVPDRFSGSKSGATASLTISGLQAEDEADYYCVSYAGTANVFGTGTKVTVL
notes: expressed in IgG1 format; also called ATL_6194; ATL6194
B4: ATL_0006183 (antibody, V domains shown)
VH: EVQLVESGGGLVKPGGSLRLSCAASGFTFNKAWMSWVRQAPGKGLEWVGRIKSGIDAGTTDYAAPVKGRFTISRDDSKNTLYLQMNSLKTEDTAVYYCTPPPYYYYGLDVWGQGTTVTVSS
VL: QSALTQPRSVSGSPGQSVTISCTGTSSDVGSYNLVSWYQQHPGKAPKLMIYEVNKRPSGVPDRFSGSKSGATASLTISGLQAEDEADYYCGSYAGTANVFGTGTKVTVL
notes: HD patient (ENBB) HCDR3 in ATL5895 VH, ATL5895 VL; also called ATL_6183; ATL6183
B5: ATL_0006377 (antibody, V domains shown)
VH: EVQLVESGGGLVKPGGSLRLSCAASGFTFNKAWMSWVRQAPGKGLEWVGRIKSGIDAGTTDYAAPVKGRFTISRDDSKNTLYLQMNSLKTEDTAVYYCVPSPYYYYYGLDVWGQGTTVTVSS
VL: QSALTQPRSVSGSPGQSVTISCTGTSSDVGSYNLVSWYQQHPGKAPKLMIYEVNKRPSGVPDRFSGSKSGATASLTISGLQAEDEADYYCVSYAGTANVFGTGTKVTVL
notes: also called ATL_6377
B6: ATL_0006204 (antibody, V domains shown)
VH: EVQLVESGGGLVKPGGSLRLSCAASGFTFNKAWMSWVRQAPGKGLEWVGRIKSGIDAGTTDYAAPVKGRFTISRDDSKNTLYLQMNSLKTEDTAVYYCIPPPYYYYYGLDVWGQGTTVTVSS
VL: QSALTQPRSVSGSPGQSVTISCTGTSSDVGSYNLVSWYQQHPGKAPKLMIYEVNKRPSGVPDRFSGSKSGATASLTISGLQAEDEADYYCVSFAGTANVFGTGTKVTVL
notes: expressed in IgG1 format; also called ATL_6204
B7: ATL_0006375 (antibody, V domains shown)
VH: EVQLVESGGGLVKPGGSLRLSCAASGFTFNKAWMSWVRQAPGKGLEWVGRIKSGIDAGTTDYAAPVKGRFTISRDDSKNTLYLQMNSLKTEDTAVYYCVPPPYYYYYGLDVWGQGTTVTVSS
VL: QSALTQPRSVSGSPGQSVTISCTGTSSDVGSYNLVSWYQQHPGKAPKLMIYEVNKRPSGVPDRFSGSKSGATASLTISGLQAEDEADYYCVSYGGTENVFGTGTKVTVL
notes: also called ATL_6375
B8: ATL_0006185 (antibody, V domains shown)
VH: EVQLVESGGGLVKPGGSLRLSCAASGFTFNKAWMSWVRQAPGKGLEWVGRIKSGIDAGTTDYAAPVKGRFTISRDDSKNTLYLQMNSLKTEDTAVYYCTPPPYYYYGLNVWGQGTTVTVSS
VL: QSALTQPRSVSGSPGQSVTISCTGTSSDVGSYNLVSWYQQHPGKAPKLMIYEVNKRPSGVPDRFSGSKSGATASLTISGLQAEDEADYYCGSYAGTANVFGTGTKVTVL
notes: HD patient (ENBB) HCDR3 in ATL5895 VH, ATL5895 VL; also called ATL_6185; ATL6185
B9: ATL_0006202 (antibody, IgG1, V domains shown)
VH: EVQLVESGGGLVKPGGSLRLSCAASGFTFNKAWMSWVRQAPGKGLEWVGRIKSGIDAGTTDYAAPVKGRFTISRDDSKNTLYLQMNSLKTEDTAVYYCSPPPFYYYYGLDVWGQGTTVTVSS
VL: QSALTQPRSVSGSPGQSVTISCTGTSSDVGSYNLVSWYQQHPGKAPKLMIYEVNKRPSGVPDRFSGSKSGATASLTISGLQAEDEADYYCVSYGGTENVFGTGTKVTVL
notes: IgG1 format; also called ATL_6202
B10: ATL_0006378 (antibody, V domains shown)
VH: EVQLVESGGGLVKPGGSLRLSCAASGFTFNKAWMSWVRQAPGKGLEWVGRIKSGIDAGTTDYAAPVKGRFTISRDDSKNTLYLQMNSLKTEDTAVYYCVPSPYYYYYGLDVWGQGTTVTVSS
VL: QSALTQPRSVSGSPGQSVTISCTGTSSDVGSYNLVSWYQQHPGKAPKLMIYEVNKRPSGVPDRFSGSKSGATASLTISGLQAEDEADYYCVSYGGTENVFGTGTKVTVL
notes: also called ATL_6378; ATL 6378
B11: ATL_0006203 (antibody, V domains shown)
VH: EVQLVESGGGLVKPGGSLRLSCAASGFTFNKAWMSWVRQAPGKGLEWVGRIKSGIDAGTTDYAAPVKGRFTISRDDSKNTLYLQMNSLKTEDTAVYYCIPSPYYYYYGLDVWGQGTTVTVSS
VL: QSALTQPRSVSGSPGQSVTISCTGTSSDVGSYNLVSWYQQHPGKAPKLMIYEVNKRPSGVPDRFSGSKSGATASLTISGLQAEDEADYYCVSYAGTANVFGTGTKVTVL
notes: expressed in IgG1 format; also called ATL_6203
B12: ATL_0006205 (antibody, IgG1, V domains shown)
VH: EVQLVESGGGLVKPGGSLRLSCAASGFTFNKAWMSWVRQAPGKGLEWVGRIKSGIDAGTTDYAAPVKGRFTISRDDSKNTLYLQMNSLKTEDTAVYWCVPPPYYYYYGLDVWGQGTTVTVSS
VL: QSALTQPRSVSGSPGQSVTISCTGTSSDVGSYNLVSWYQQHPGKAPKLMIYEVNKRPSGVPDRFSGSKSGATASLTISGLQAEDEADYYCVSYAGTANVFGTGTKVTVL
notes: IgG1 format; also called ATL_6205
B13: ATL_0006374 (antibody, V domains shown)
VH: EVQLVESGGGLVKPGGSLRLSCAASGFTFNKAWMSWVRQAPGKGLEWVGRIKSGIDAGTTDYAAPVKGRFTISRDDSKNTLYLQMNSLKTEDTAVYWCVPPPYYYYYGLDVWGQGTTVTVSS
VL: QSALTQPRSVSGSPGQSVTISCTGTSSDVGSYNLVSWYQQHPGKAPKLMIYEVNKRPSGVPDRFSGSKSGATASLTISGLQAEDEADYYCVSYGGTENVFGTGTKVTVL
notes: also called ATL_6374; ATL 6374
B14: ATL_0006376 (antibody, V domains shown)
VH: EVQLVESGGGLVKPGGSLRLSCAASGFTFNKAWMSWVRQAPGKGLEWVGRIKSGIDAGTTDYAAPVKGRFTISRDDSKNTLYLQMNSLKTEDTAVYYCVPPPFYYYYGLDVWGQGTTVTVSS
VL: QSALTQPRSVSGSPGQSVTISCTGTSSDVGSYNLVSWYQQHPGKAPKLMIYEVNKRPSGVPDRFSGSKSGATASLTISGLQAEDEADYYCVSYGGTENVFGTGTKVTVL
notes: also called ATL_6376
B15: ATL_0006200 (antibody, V domains shown)
VH: EVQLVESGGGLVKPGGSLRLSCAASGFTFNKAWMSWVRQAPGKGLEWVGRIKSGIDAGTTDYAAPVKGRFTISRDDSKNTLYLQMNSLKTEDTAVYYCVPPPYYYYYGLDVWGQGTTVTVSS
VL: QSALTQPRSVSGSPGQSVTISCTGTSSDVGSYNLVSWYQQHPGKAPKLMIYEVNKRPSGVPDRFSGSKSGATASLTISGLQAEDEADYYCGSYAGTANVFGTGTKVTVL
notes: expressed in IgG1 format; also called ATL_6200
B16: ATL_0006199 (antibody, V domains shown)
VH: EVQLVESGGGLVKPGGSLRLSCAASGFTFNKAWMSWVRQAPGKGLEWVGRIKSGIDAGTTDYAAPVKGRFTISRDDSKNTLYLQMNSLKTEDTAVYWCSPPPYYYYYGLDVWGQGTTVTVSS
VL: QSALTQPRSVSGSPGQSVTISCTGTSSDVGSYNLVSWYQQHPGKAPKLMIYEVNKRPSGVPDRFSGSKSGATASLTISGLQAEDEADYYCGSYAGTANVFGTGTKVTVL
notes: expressed in IgG1 format; also called ATL_6199
B17: ATL_0006184 (antibody, V domains shown)
VH: EVQLVESGGGLVKPGGSLRLSCAASGFTFNKAWMSWVRQAPGKGLEWVGRIKSGIDAGTTDYAAPVKGRFTISRDDSKATLYLQMNSLKTEDTAVYYCTPPPYYYYGLDVWGQGTTVTVSS
VL: QSALTQPASVSGSPGQSITISCTGTSSDVGGYKLVSWYQQHPGRAPKLMIYEVSKRPSGVSSRFSGSKSGSTASLTISGLQAEDEADYYCSSYAGSSVVFGGGTKLTVL
notes: HD patient (ENBB) HCDR3 in ATL5901 VH, ATL5901 VL; also called ATL_6184; ATL6184
B18: ATL_0006186 (antibody, V domains shown)
VH: EVQLVESGGGLVKPGGSLRLSCAASGFTFNKAWMSWVRQAPGKGLEWVGRIKSGIDAGTTDYAAPVKGRFTISRDDSKATLYLQMNSLKTEDTAVYYCTPPPYYYYGLNVWGQGTTVTVSS
VL: QSALTQPASVSGSPGQSITISCTGTSSDVGGYKLVSWYQQHPGRAPKLMIYEVSKRPSGVSSRFSGSKSGSTASLTISGLQAEDEADYYCSSYAGSSVVFGGGTKLTVL
notes: HD patient (ENBB) HCDR3 in ATL5901 VH, ATL5901 VL; also called ATL_6186; ATL6186

Legend:
[1] = target: T1, biotinylated GYSLPQPQPPPPPPPPPP peptide (also: biotinylated, position not given here); test: BLI (Octet), biotinylated peptide on streptavidin biosensor
T1 construct: also called HTT exon1 in the form of biotinylated peptide
T1 peptide: GYSLPQPQPPPPPPPPPP

[2] = target: T2, Mutant Human HTT Exon 1 48Q (GST) (human); test: HTT sandwich ELISA, experiment 1 (133 nM starting concentration)
T2 construct: recombinant His- and GST-tagged fusion; also called HTT Exon 1 Q48; 48Q HTT Exon-1
T2 sequence (chain, as listed by the source mutant limits assumed): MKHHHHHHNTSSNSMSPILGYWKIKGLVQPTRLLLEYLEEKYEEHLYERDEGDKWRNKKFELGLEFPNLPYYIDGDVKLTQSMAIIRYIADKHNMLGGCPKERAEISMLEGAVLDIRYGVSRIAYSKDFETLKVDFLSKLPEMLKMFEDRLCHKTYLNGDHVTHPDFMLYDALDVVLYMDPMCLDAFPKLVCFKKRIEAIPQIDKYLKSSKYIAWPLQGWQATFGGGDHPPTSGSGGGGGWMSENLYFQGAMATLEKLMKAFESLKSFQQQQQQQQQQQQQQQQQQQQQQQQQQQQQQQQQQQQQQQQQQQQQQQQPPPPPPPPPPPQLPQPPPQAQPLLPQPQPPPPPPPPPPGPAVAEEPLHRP

[3] = target: T2, Mutant Human HTT Exon 1 48Q (GST); test: HTT sandwich ELISA, experiment 2 (400 nM starting concentration)
[4] = target: T2, Mutant Human HTT Exon 1 48Q (GST); test: ELISA
[5] = target: T2, Mutant Human HTT Exon 1 48Q (GST); test: HTT sandwich ELISA
[6] = target: T2, Mutant Human HTT Exon 1 48Q (GST); test: HTT sandwich ELISA; remark: listed apart in the source
human lysozyme = target: T3, human lysozyme (human, UniProt P61626 19-148); test: direct ELISA
T3 sequence (looked up): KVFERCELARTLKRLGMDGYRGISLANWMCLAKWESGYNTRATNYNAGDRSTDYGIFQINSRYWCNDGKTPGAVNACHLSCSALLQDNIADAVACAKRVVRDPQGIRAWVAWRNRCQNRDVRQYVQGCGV

Binder	binding result [1]	EC50 [2]	EC50 [3]	other results
B1	binds	21.1 nM	14.7 nM	–
B2	–	–	–	binding result [4]: binds
B3	binds	19.8 nM	14 nM	–
B4	–	–	–	EC50 [5]: 9.2 nM
B5	–	–	–	EC50 [6]: 23.8 nM; binding result (human lysozyme): no binding (tested: less than 1 µM)
B6	binds	16.2 nM	12.2 nM	–
B7	–	–	–	EC50 [6]: 20.1 nM
B8	–	–	–	EC50 [5]: 7.31 nM
B9	binds	–	13.5 nM	–
B10	–	–	–	EC50 [6]: 38.9 nM
B11	binds	8.91 nM	8.72 nM	–
B12	binds	13.4 nM	16.4 nM	–
B13	binds	–	–	EC50 [6]: 31.1 nM
B14	–	–	–	EC50 [6]: 11.5 nM; binding result (human lysozyme): no binding (tested: less than 1 µM)
B15	binds	12.8 nM	9.75 nM	–
B16	binds	15 nM	13.1 nM	–
B17	–	–	–	EC50 [5]: 10.1 nM
B18	–	–	–	EC50 [5]: 11.1 nM
